According to the DeepSol protein solubility set:

Assay: soluble on expression in E. coli; label from the status in PepcDB or PDB records

| Sequence | soluble on expression in E. coli |
| --- | --- |
| MSLARIKDVAELAGVNRSTVSRIINGEGKFREETRKKVEQAMAQLNYRPSAIARSLATSSSNMVGLLVTYYTGGFFGEMMEQVQTELDIHKKFLITAQGHHSAEGEKEAIQRFNDLRCDGYVLHSRYLSDDDLRELAKLPTPFVLLDRYVEGIEERCITFNHHHASRIAVEHLIAGGHKNIACITGPSLRHNSLLRKLGYVDAMKTAGIDIDESWCEEGNYGRQSGYDAMASILKRHPEVTAVFSCSEEMTVGAMQYLHEHKISVPEQISLTSFDSVDLCESLYPTVSAVHFPISDMARAAVQTLMGLVKKQEHIEKPVFEAKLKLRHADREGHHHHHH | soluble |
| MSLARLQFQLKVDGLEDESLVVRGFEGQESLSDSVWRCEPCYGFRYQVDLASALSNLTAEQFVDQTAHLTILRDGQVVQQINGIVRQLSKGDTGHRHTFYSLTLVPALERLSLRSNSRIFQQQSVPEIISILLQEMGIEDYAFALKRECAQREFCVQYRETDLQFLHRIAAEEGLVYSHLHEAQKHTLLFTDSSDSQPKLAKPVPYNALAGGEINLPYVVDLQFKTTAQVSHTELKDYSFKKPAYGFTQRTQGKDIAYQQPNYEHFDAPGRYKDDANGKAFSQIRLEYLRRDALLADAKSDEPLLLAGVRFDLQDHLDHAMNRDWLVVQANHQGTQPQALQEEGGSGATTYSNQLKLIPAHITWRARPCAKPQVDGPMIATVVGPQGEEIYCDNFGRVKVHFPWDRYSSSNEKSSCWVRVAQEWAGSQYGSMAIPRVGHEVIVSFLNGDPDQPIITGRTYHATNTAPYALPDHKTKTVLRTETHQGQGYNELSFEDQAGSEQILLHAQKDWDALIEHDHTEVIRHDQHLTVDNDRFTRIQRNQHLTVEGEVRSKIALDSSHEVGASLQHKVGQRIAVEAGKEISLKSGAKIVVEAGAELTLKAGGSFVKVDAGGVHLVGPAINLNAGGSAGSGSAYGGQLAAAPRMLAQAKPVAELVQPDIAASMQSGAARVIDVASLPTMMPSSANNTANDEPVAEEKTPERILKSDLLKPSDELEKLAKRQASAYRQGNHSDEVKLLQEALIKLGFDLGKAGADGDFGSKTKTAIEQFQKSYQPSHQTHPSYSIGAVDGIVGKGTLLALDEALMDGWVYENNIYQIWPLGKTSEKYESAGRGPGVISTGNGDYGGASYGCYQMSSNLGVVQKYIQSSKFKEFFSGLNPATKEFNVVWQDIASRYPQEFREEQHQFIKRTHYDIQIGHLRGKGLLFEHNRAAVHDLIWSTSVQFGGRTNLIFNALNGQNMESMTDKDIIILVQDYKLVNTERLFKSSPSWWSDLKKRAVSEKKALLELEIDGLEVDIKEGGSHHHHHH | not soluble |
| MSLASLIGLAVCTGNAFSPALAAEAKQPNLVIIMADDLGYGDLATYGHQIVKTPNIDRLAQEGVKFTDYYAPAPLSSPSRAGLLTGRMPFRTGIRSWIPSGKDVALGRNELTIANLLKAQGYDTAMMGKLHLNAGGDRTDQPQAQDMGFDYSLANTAGFVTDATLDNAKERPRYGMVYPTGWLRNGQPTPRADKMSGEYVSSEVVNWLDNKKDSKPFFLYVAFTEVHSPLASPKKYLDMYSQYMSAYQKQHPDLFYGDWADKPWRGVGEYYANISYLDAQVGKVLDKIKAMGEEDNTIVIFTSDNGPVTREARKVYELNLAGETDGLRGRKDNLWEGGIRVPAIIKYGKHLPQGMVSDTPVYGLDWMPTLAKMMNFKLPTDRTFDGESLVPVLEQKALKREKPLIFGIDMPFQDDPTDEWAIRDGDWKMIIDRNNKPKYLYNLKSDRYETLNLIGKKPDIEKQMYGKFLKYKTDIDNDSLMKARGDKPEAVTWGEGHHHHHH | soluble |
| MSLATESDETSLDFPDHALERVRDILRLRRNFDISSYKDKYLKRRIAIRVRATRSVTADAYCDLVARNERELELLLKGLTIHVSQFFRNSSTFEALRGTVLPAIFDRLRREGRDSATFWSVGCASGEEPYSLAIILRDSFRESLKEFKVSLVATDIDGGILDAARAGIYSPERLAEVPAEVKDRYFRPMGERFVLDPTIREMVDFRRSDLFDPESSVESDLILCRNVLIYFERSEQARILRGFVSSLCTGGVLVLGKAETLVAEVRQRFTTLCPMERIYQKNRFSVYEGHHHHHH | soluble |
| MSLATNKKEIIRLLEEIATYMELKGENSFKISAFRKAAQAIELDSRSLSEIDDFTKISGIGKTTGEIIQRYLDSGECPELEELKKEVPAGLVPLLDVPGLGGKKLSRLYHELGVVDKDTLLQEAENGHIEALKGFGKKSAEKMAEAVREMGERPDRYPLNDVLPIIQKVEAYLAEIAPIETFAQAGSLRRLRETVKDLDYVIATEKPEDVQKALLAFPLITDVIGAGETKVSAVLEDNITISVDFRLVEKKAFATTLHHFTGSKDHNIKMRQLAKQSNEKISEYGVEQEDGTVRHFESEKTFFEHFKIPFLPPEVRRDGTEIERVTKDTKFLELSDIRGDLHMHTTWSDGAYAIPEMIEACIAKGYEYMVITDHGKFLRVANGLDEKRLLEQQAEIKKIAAKYPEIDVYSGVEMDILADGSLDFDDETLKQLDFVIASIHSSFQQSEEEIMKRLKTACENPYVRLIAHPTGRIVVKRKPYHVNMKELIQLAKSTGTALELNANPQRLDLNREHLEMAHAAGVPIAINTDAHDTKHLDFMSIGVRAATKAWLGKSAILNTKTAAEFKQFLQNKEGHHHHHH | soluble |
| MSLATTLVLGGGYAGMRAVKFLQKSLPTEDEIILVDQTPTHTEKTNLHEVAAGTIAPDRITYQIPDIIGKRVQFVQATVKNVDIEQKQVTFEDHPEMTYDYLVLALGFQSETFGVAGADENALPMDDLATSQAVYEHLEERFKAYRTSKDKNDLKIAVCGAGFTGIELLGELTQTLPRLQAKYQTPAAKLVCLERMPSILPMFTQELRDYALKFMEKNNVEMRLGAVIEAIKPGAVVYSDADKNEHEFTANTIIWTVGVSGSHVIADSGFDQRRNRVVVKPDLSLEGHPEVFIVGDVAAVMDPESNRPYPTTAQIALAAGEQAAKNIGALRHNQATATFHYESSGTVASLSDRDGIGEIFSSNKPVHGYAASALKKIITDRSLLESAHLGTVFSKGRFDLYHEGHHHHHH | soluble |
| MSLAWDEGKPRIITLTMNPALDITTSVDVVRPTEKMRCGAPRYDPGGGGINVARIVHVLGGCSTALFPAGGSTGSLLMALLGDAGVPFRVIPIAASTRESFTVNESRTAKQYRFVLPGPSLTVAEQEQCLDELRGAAASAAFVVASGSLPPGVAADYYQRVADICRRSSTPLILDTSGGGLQHISSGVFLLKASVRELRECVGSELLTEPEQLAAAHELIDRGRAEVVVVSLGSQGALLATRHASHRFSSIPMTAVSGVGAGDAMVAAITVGLSRGWSLIKSVRLGNAAGAAMLLTPGTAACNRDDVERFFELAAEPTEVGQDQYVWHPIVNPEASPEGHHHHHH | soluble |
| MSLAYMPMTTVQHIATTNEKQAQKIIAELNAGASFDSQVRKYQNNRQAHTTAGKLAQFDSYNQTLAPAIVQATAKLRVGHYVTKPVKTVMATADTKDKPTYEIINVVSREGHHHHHH | soluble |
| MSLCCISFRVGTGPCVTSGADRLTKGPLRKSAPVSQPEANPKSRSFSGNFLNHTFRRENPMSEITSLVTAEAVKDVLRSEEVRSALKQKLRHNLEARLDAEVDAILDELLGVQAEPPTEAGDTTAESGEVQPESPVADATEPQPESVMMLEGHHHHHH | soluble |
| MSLCEKEINNNNNNNELTEKSKEEIEKDEIEYLEYLKYRKEIIDSHCHIHEDVEHLQESCDLPFKKILLMGTTVEDWDKINQLADKINDDNKIIRCFGIHPWFVYNYLPPTELIGKIKEGDGSNDSIIISIDETWRIKMKELLLKYPNSIVGEIGIDKVTKVRLNGFNKNDQESQMRVFRDQIEIANELDRLVSLHCVQLQGQLLTFFQSLDIDKFPPAIALHTFGGKPATVDQFCKMASGKGDKFYFGLSFINLTFSKVDKLIQAIPDDRLLLESDQNSPTQVDQSLFKLIQKISISKNWTIQKTIEQTTLNTLNFLSKQIKKEGHHHHHH | soluble |
| MSLCGISGLVQLEGVADTSAMRRSVETMVKALAHRGPDDSGVAGDGSAVFGMARLAIRGCHDGRQPMVDAETGVMMVCNGEIDNHAELRGWLAERGRAVEHATDVAVIPGLYLELGDGFVERLVGAFALAVWDPRRGRLLLARDRAGERPLFYACRDGRVSFASQAAALVAGSPEPYPADEAAVQAFLKAGYFEAPASPFAGMRKVLPGERIAIDVKGVERSRYWRLNFTRGPARKNPLDEFDAVFREAVRRQSEVEVDFGAFLSGGVDSSLVTAVMRSVHPDRKLKAFGLRFSESSYDEGVFAERVAESLGVDYTPIWVRPEDFPETLADLVRQSGEPLADPAWVPTALLARRASDEVRVALVGEGADELFGGYPTYFGARLAERYSRLPGGLRALIRKAVEAWPVSDKKVTVSFLLKRFVQGDELDFLARHVLWTSSIPPALLRRLGVTPPETPHVAGPQETMLDRLQQHDLETSLAEGLLTKADRASMRSALELRAPFLDKDVIEFAATLPERERVQGLETKVFLKRVALRYLPKDIVYRKKRGLSVPLSAWLRGPLHDWAEARISSPRLEELGINRAAALELLREHERRSADHARALWTLIVVSEWLEWKAGMEAHEGHHHHHH | soluble |
| MSLDEEKVGTEVPDPEISKMLFSEFCKSDGIGVSDVTKEEEFRYEDAWLTGYTYTQEVSIADLTEIISHSLTIQYGNNRSSVTFTDEIGTERKYTLNEEGYATQCEYASLDQKRQYTFLYTDGYLTQVNEKIMPREGSSDAVVAHTLSLQYDKGDLISTISPSLPYESSTGYGKLQTNYEAGEDINYYRLPCMLVADTYPLSFHREALFAGMLGKPTQHLTTASYPEKTSDTYTERTEYTYSFDKNKKPVSLKVSTKYGNGKSISYLNRTISITIEGHHHHHH | soluble |
| MSLDESKGFIEDSKLSVKTRMLYFSRDFRNNAPGSQSRVEETGLGFLGTFESGFTQGTVGFGVDAIGMLGLKLDSGKGRAGTGLFPTGADGRSQDDYSEGGGAVKMRISNTVLKFGDQFTALPVLATDDSRLLPEVAEGGLITSNEIDDLTVHAGHFTALNAQAQTYHDSLNLTEANVFGGTYAITDSLSTSVYYSRIEDHFRKWYGNINWALPISDKQGLVFDFNIYDTKSIGNNLTGAYVSKSDGTNELDNIAASLSAAYNVGAHTFTLAYQKVSGDGDYAYGVDGGGTVFLANSVARSDFNAEDEKSWQARYDLNFAEFGVPGLTFMTRYVSGTGATTRTTDSGKEWERDIDVKYVMQSGPAKDLSFRVRQATYRSGEGHHHHHH | soluble |
| MSLDEVECSADHIARPILILKETRRLPWATGYAEVINAGKSTHNEDQASCEVLTVKKKAGAVTSTPNRNSSKRRSSLPNGEGLQLKENSESEGVSCHYWSLFDGHAGSGAAVVASRLLQHHITEQLQDIVDILKNSAVLPPTCLGEEPENTPANSRTLTRAASLRGGVGAPGSPSTPPTRFFTEKKIPHECLVIGALESAFKEMDLQIERERSSYNISGGCTALIVICLLGKLYVANAGDSRAIIIRNGEIIPMSSEFTPETERQRLQYLAFMQPHLLGNEFTHLEFPRRVQRKELGKKMLYRDFNMTGWAYKTIEDEDLKFPLIYGEGKKARVMATIGVTRGLGDHDLKVHDSNIYIKPFLSSAPEVRIYDLSKYDHGSDDVLILATDGLWDVLSNEEVAEAITQFLPNCDPDDPHRYTLAAQDLVMRARGVLKDRGWRISNDRLGSGDDISVYVIPLIHGNKLSEGHHHHHH | soluble |
| MSLDEVIIGVCWPFSVNRDGMADGLHLALDEINTRRLAGPYTIRLVERDDEFDSKKHKNIAREFADRADMSAVLGYYDDGPSIRASSIYESSRLLHLMIGANNTDMTSHGFNYINRTILSSDRIALKLAKLTTDLGYRKIVVLWEEDAYGEDLAYQYQVGLDQLNAQVVYQWSYSRKNVDFRLLVNDLKIVDADMIFFSGLEPIAGDFLRMARKVGLKTPVIGAFSNTPEMRAHAGAVGFEGAIMFDFYNPCSQTPENRLFVNKFFSRYGRYPDAWAAQSYDALHILAKAIKFTGSRNPLDLSYAIRYADAFNGANGRYKFDRAGNLEDKPIYLYKIQNGVPVLLEEGHHHHHH | soluble |
